Test results taken from article PMC3912212.

Legend:
[1] = target: paclitaxel-stabilized microtubules (bovine brain tubulin) (bovine (purified from juvenile bovine brains)) (UniProt Q6B856)
[2] = target: subtilisin-digested microtubules (C-terminal tails of tubulin removed) (bovine (purified from juvenile bovine brains))
[3] = target: paclitaxel-stabilized microtubules (bovine brain tubulin) (bovine (purified from juvenile bovine brains)) (UniProt Q6B856); assay: TIRF microscopy, single-molecule assay for microtubule-associated proteins; rhodamine-labeled microtubules immobilised on the surface by anti-rhodamine antibodies; CCA-GFP in solution; lifetimes of tracked single molecules, exponential fit, corrected for photobleaching
[4] = target: paclitaxel-stabilized microtubules (bovine brain tubulin) (bovine (purified from juvenile bovine brains)) (UniProt Q6B856); assay: TIRF microscopy, fluorescence intensity on microtubules; surface-immobilized microtubules; CCA-GFP with no added salt, 25 mM KCl or 50 mM KCl; line-scan intensity, mean ± SD
[5] = target: paclitaxel-stabilized microtubules (bovine brain tubulin) (bovine (purified from juvenile bovine brains)) (UniProt Q6B856); assay: TIRF microscopy, fluorescence intensity on microtubules; one flow chamber containing both brightly-labeled microtubules and dimly-labeled, subtilisin-digested microtubules; CCA-GFP in solution; line-scan intensity, mean ± SD
[6] = target: paclitaxel-stabilized microtubules (bovine brain tubulin) (bovine (purified from juvenile bovine brains)) (UniProt Q6B856); assay: TIRF microscopy, fluorescence intensity on microtubules against concentration; fluorescently-labeled microtubules adhered to cover glass; CCA-GFP introduced at increasing concentrations and allowed to equilibrate; line-scan intensity fit to a Michaelis-Menten curve (binding isotherm)
[7] = target: paclitaxel-stabilized microtubules (bovine brain tubulin) (bovine (purified from juvenile bovine brains)) (UniProt Q6B856); assay: calculated from the TIRF intensity titration (KD) and the single-molecule lifetimes (koff); association rate constant inferred from KD and koff, not measured directly

- normalized 32P band intensity of the INBox motif (CCA auto-phosphorylation) in an in vitro kinase assay with 3 µM microtubules; buffer control 0.62 [1]: 0.92 a.u.
- normalized 32P band intensity of the INBox motif (CCA auto-phosphorylation) in an in vitro kinase assay with 3 µM subtilisin-digested microtubules; buffer control 0.62, undigested microtubules 0.92 [2]: 0.64 a.u.
- koff [3]: 0.66 s⁻¹
- mean residence time on the lattice [3]: 1.5 s
- CCA-GFP intensity on microtubules, 25 mM KCl added [4]: 117 a.u.
- CCA-GFP intensity on microtubules, 50 mM KCl added [4]: 27 a.u.
- CCA-GFP intensity on microtubules, no added salt [4]: 277 a.u.
- GFP intensity on undigested microtubules [5]: 375 a.u.
- Kd [6]: 80 nM
- kon [7]: 8.25e+06 M⁻¹ s⁻¹
Substance: CCA-GFP, minimal chromosome passenger complex of INCENP a.a. 491-873 (coiled-coil domain and INBox) and Aurora-B (from UniProt O13024 491-873; Q6DE08 1-361)
